Data on 167 variants can be found in the RNAGym collection of RNA variant scans (doi:10.7554/elife.80360).

To fix the notation:
B1: HDV Ribozyme (parent)
chain: GGCCGGCAUGGUCCCAGCCUCCUCGCUGGCGCCGGCUGGGCAACAUUCCGAGGGGACCGUCCCCUCGGUAAUGGCGAAUGGGACCCA

This data set covers variants of B1. Put plainly: self-cleavage, relative activity (ratio to wild type); higher = more cleavage; co-transcriptional.
For the variant G17A C19A, the self-cleavage was determined as 0.142. Regarding G17A C19G, the self-cleavage was 0. Then C18U A70G, with 0.752. Regarding C18U A70C, the self-cleavage was 0.514.

With C18U A70U, the self-cleavage was determined as 0.658. To C18U C19G belongs 0.0297; to C18U C19U, 0. To C18A C48U belongs 0.0627. As to C18U G29C, the self-cleavage worked out at 0.196.

C19A A56U: the self-cleavage is 0.122. G17U G40C: the self-cleavage is 0.189. As for G17C G82C, the self-cleavage came to 0.133. With C18U C44U, the self-cleavage amounted to 0.258. Turning to C18G G53A, the self-cleavage is 0.175. For C18G G53C, the self-cleavage is 0.227. Consider G17A A42G, for which the self-cleavage was 0.119. In the case of C18G C21A, the self-cleavage was 0. To C18U G76U belongs 1.05; to C18G C19U, 0.0898; to C18A A77U, 0. Take G17A U60G: the self-cleavage came to 0.712. For the variant C18G C66G, the self-cleavage was found to be 0.0665. Then C18G C63A, with 0.145; and C18A C41U, with 0.0339; and C18G G82C, with 0. Regarding G17U G52U, the self-cleavage came out at 0.517. With G17A C49G, the self-cleavage came out at 0.565. Then G17A C49U, with 0.853; and G17A G40U, with 0.562. Consider C18G U69A, for which the self-cleavage was 0.0489. Then C18G U69C, with 0.151; and C18G U69G, with 0.128; and C18U C22U, with 0.121. Then G17U C41G, with 0.0462.

As for C18U C63G, the self-cleavage was found to be 0.607. With C18U C63U, the self-cleavage came out at 0.733. To G17U G76A belongs 0.73; to G17C G34C, 0.0723; to C18A C58A, 0.285. Then C18U G80C, with 0.102; and C18U G80A, with 0.196; and G17U U72C, with 0.142. With C18A G73C, the self-cleavage worked out at 0.0396. To C18G U27C belongs 0.237; to G17C U46A, 0.237; to C18A A42U, 0.0437.

For the variant C18A A42C, the self-cleavage is 0.0707. Then G17C C66G, with 0.32; and C18A U20A, with 0.0875. To G17A G31A belongs 0.234; to C18U A83C, 0.227; to G17C C63U, 0.397.

With C18A A83G, the self-cleavage is 0.0443.

In the case of G17C C41A, the self-cleavage is 0.111. Turning to A16U U60G, the self-cleavage was 1.15. For the variant G17U A78G, the self-cleavage was 0.201. Then C18U U46G, with 0.277.

For the variant C18U U60A, the self-cleavage is 0.852. To C18U U60G belongs 0.633; to G17A C58G, 0.812; to G17A C30A, 0.651. Regarding G17U A51C, the self-cleavage came out at 0.831. To C18U U20A belongs 0.0339; to C18U U20G, 0.277; to C18G C48U, 0.

Consider G17A C44G, for which the self-cleavage is 0.268. As to G17U C85G, the self-cleavage was 0.554. On to G17U C85U, for which the self-cleavage amounted to 0.614. To G17U C85A belongs 0.538. Regarding G17C A77G, the self-cleavage came out at 0.0615. Consider G17C A77U, for which the self-cleavage was determined as 0.

For the variant C18G C62U, the self-cleavage turned out to be 0.308. Then C18G G39C, with 0.0755; and C18G U37C, with 0.256. With C18G U37G, the self-cleavage amounted to 0.0692. To C18G U47A belongs 0. Then C18A C85U, with 0.158. To C18A C85A belongs 0.224; to C18G G35C, 0.104; to C18G G54U, 0.0563. In the case of A16U U69A, the self-cleavage turned out to be 0.911. To A16U U69C belongs 0.643. To G17C C64G belongs 0.298; to A16U U47C, 0.72; to G17C G35C, 0.0437. With G17A G34U, the self-cleavage was found to be 0.0346. Take C18U G38A: the self-cleavage was 0.176.

As for C18U G67C, the self-cleavage stood at 0.436. As for C18U G67A, the self-cleavage came out at 0.468. To C18U G67U belongs 0.665; to C18A G31C, 0.163; to C18U G68U, 0.635. To C18U G68C belongs 0.544; to C18G G59A, 0.128.

C18G G59U: the self-cleavage came to 0.312. Then G17U U47C, with 0.298; and G17U G28C, with 0.0652. Then G17U U37C, with 0.612; and G17C G39U, with 0.108. In the case of C18A U69C, the self-cleavage was found to be 0.138. With C18G C61U, the self-cleavage was found to be 0.0519. For the variant C18G G81U, the self-cleavage was 0.

On to C18A U72A, for which the self-cleavage was 0.0504. Then C18A C30G, with 0.0573; and C18A C30A, with 0.141. Then G17U C63A, with 0.517; and G17C U27G, with 0.499. Consider G17A G74A, for which the self-cleavage was 0.132. On to C18G G52U, for which the self-cleavage was 0.203.

Consider G17A G68C, for which the self-cleavage stood at 0.575. Then A16U U65G, with 0.997.

Regarding G17C C21U, the self-cleavage was 0.0923. Take G17U U46C: the self-cleavage is 0.356. Regarding C18U A45U, the self-cleavage turned out to be 0.361.

With C18A U65A, the self-cleavage was 0.0723.

Turning to C18A U65C, the self-cleavage was found to be 0.101. To G17C A70C belongs 0.0536; to G17C C44U, 0.142; to G17C C48U, 0.175.

In the case of C18A C62U, the self-cleavage was determined as 0.264. Consider G17U C32A, for which the self-cleavage amounted to 0.136. Then G17U C32G, with 0.0386; and G17C C61A, with 0.185; and G17U C61U, with 0.471. Then G17U G31U, with 0.0723; and G17A G67A, with 0.501; and G17A C63U, with 0.88. To G17U A83G belongs 0.405; to G17U A83C, 0.219; to G17U C75A, 0.198. As for G17C A71G, the self-cleavage is 0.475. To G17C A71U belongs 0.32. Then G17A C36G, with 0.0475; and C18G G34A, with 0.136; and G17C G59A, with 0.231. As for C18U C41A, the self-cleavage amounted to 0.597. On to G17U A87U, for which the self-cleavage came out at 0.548. Then G17U A87G, with 0.499; and C18A U23A, with 0.122; and C18A U23G, with 0.155.

As for G17A G54A, the self-cleavage was 0.786. Turning to C18G C26U, the self-cleavage is 0.388. For G17U G67A, the self-cleavage was 0.564. Then G17U G53A, with 0.641; and G17U G53U, with 0.42; and G17U G53C, with 0.354.

As for C18G G76C, the self-cleavage is 0.147. Then C18G U79A, with 0.0615; and C18A C63G, with 0.0791. C18U G31A: the self-cleavage was 0.0702. To G17A C62U belongs 0.554; to C18G G31U, 0.0396; to G17C U47A, 0. Regarding G17C U47C, the self-cleavage worked out at 0.519.

For the variant G17C U47G, the self-cleavage stood at 0.217.

Regarding G17A C33U, the self-cleavage was found to be 0.566. Consider G17A G53U, for which the self-cleavage amounted to 0.718. Then G17A G35U, with 0.0906; and C18A C33G, with 0. To C18G U65G belongs 0.115; to G17U G25C, 0.0811; to G17U G25A, 0.0489. Then G17C C32G, with 0. Regarding C18A G67A, the self-cleavage came out at 0.163. To G17C A43C belongs 0.119; to C18U U69G, 0.453; to G17C U20G, 0.128.
